Km, kcat and kcat/Km data for two substances are collected here from publication PMC8071527, “Substrate Specificity of Chimeric Enzymes Formed by Interchange of the Catalytic and Specificity Domains of the 5′-Nucleotidase UshA and the 3′-Nucleotidase CpdB” (Molecules, 2021).

Common to all, as to test: phosphate release, colorimetric, saturation kinetics
Holding throughout (assay type): biochemical, Escherichia coli
Common to all, as to details: Mn2+; alkaline phosphatase as auxiliary enzyme

Series [1] deals with C[N+](C)(C)CCOP(=O)(O)OP(=O)([O-])OC[C@H]1O[C@@H](n2ccc(N)nc2=O)[C@H](O)[C@@H]1O. The source says:
(§1) phosphate release, colorimetric, saturation kinetics on CpdB_Ndom–UshA_Cdom

Series [2] relates to O=c1ccn([C@@H]2O[C@H](CO[P@@](=O)(O)O[P@@](=O)(O)O[C@H]3O[C@H](CO)[C@@H](O)[C@H](O)[C@H]3O)[C@@H](O)[C@H]2O)c(=O)[nH]1.
Description: as §1

In series [3] the test system is Nc1ncnc2c1ncn2[C@@H]1O[C@H](CO)[C@H]2OP(=O)(O)O[C@H]21.
Description: as §1

Series [4] concerns O=[N+]([O-])c1ccc(OP(=O)(O)Oc2ccc([N+](=O)[O-])cc2)cc1.
Description: as §1

Series [5] has as its system C[N+](C)(C)CCOP(=O)(O)OP(=O)([O-])OC[C@H]1O[C@@H](n2ccc(N)nc2=O)[C@H](O)[C@@H]1O. The text has this:
(§2) phosphate release, colorimetric, saturation kinetics on UshA_Ndom–CpdB_Cdom
This is another data set of the same source.

Series [6] concerns O=c1ccn([C@@H]2O[C@H](CO[P@@](=O)(O)O[P@@](=O)(O)O[C@H]3O[C@H](CO)[C@@H](O)[C@H](O)[C@H]3O)[C@@H](O)[C@H]2O)c(=O)[nH]1.
Description: as §2
The source holds these as a separate data set.

The subject of series [7] is Nc1ncnc2c1ncn2[C@@H]1O[C@H](CO)[C@H]2OP(=O)(O)O[C@H]21.
Description: as §2
The source holds these as a separate data set.

The subject of series [8] is O=[N+]([O-])c1ccc(OP(=O)(O)Oc2ccc([N+](=O)[O-])cc2)cc1.
Description: as §2
This is another data set of the same source.

For CpdB_Ndom–UshA_Cdom (Escherichia coli), the Km (commonly the substrate concentration at which the rate is half of its maximum) in series [1] is 3900 ± 600 µM; in series [2], 5900 ± 1900 µM; in series [3], 370 ± 40 µM; in series [4] it was 1400 ± 60 µM. Further, the kcat (in general, the maximal rate divided by the concentration of active sites) in series [1] is 11 ± 3 s⁻¹; in series [2] it was 0.2 ± 0.1 s⁻¹; in series [3], 117 ± 24 s⁻¹; in series [4], 208 ± 77 s⁻¹. In addition, the kcat/Km (commonly the turnover number divided by the Michaelis constant) came to 2700 ± 300 M⁻¹ s⁻¹ in series [1], 40 ± 8 M⁻¹ s⁻¹ in series [2], 320000 ± 80000 M⁻¹ s⁻¹ in series [3] and 150000 ± 55000 M⁻¹ s⁻¹ in series [4].
In the case of UshA_Ndom–CpdB_Cdom (Escherichia coli), the Km in series [5] came out at 1400 ± 400 µM; in series [6], 5000 ± 1700 µM; in series [7], 1100 ± 350 µM; in series [8], 670 ± 120 µM. In addition, the kcat is 0.3 ± 0.01 s⁻¹ in series [5], 0.1 ± 0.01 s⁻¹ in series [6], 3.6 ± 1 s⁻¹ in series [7] and 45 ± 3 s⁻¹ in series [8]. For the same substance, the catalytic efficiency (kcat/Km) in series [5] was determined as 210 ± 60 M⁻¹ s⁻¹; in series [6] it was 20 ± 10 M⁻¹ s⁻¹; in series [7], 3400 ± 1300 M⁻¹ s⁻¹; in series [8], 68000 ± 13000 M⁻¹ s⁻¹.
